Laboratory results published in patent publication US20210292393A1 (published 2021).

Assays:
[1] = target: T1, SARS-CoV-2 full length spike protein, wild type, expressed on the surface of transiently transfected CHO cells (SARS-CoV-2, UniProt P0DTC2 14-1273); experiment: flow cytometry, CHO cells expressing full-length WT spike
T1 construct: also called SARS-CoV-2 spike (S) protein; Wild-Type SARS-CoV-2

[2] = target: T2, SARS-CoV-2 full length spike protein (wild-type), conjugated to optically encoded beads (SARS-CoV-2, UniProt P0DTC2 14-1208); experiment: multiplexed bead flow cytometry, column D
T2 construct: also called SARS-CoV-2 spike (S) protein; full-length trimeric SARS-CoV-2 spike protein

[3] = target: T3, SARS-CoV-2 full length spike protein (wild type) (SARS-CoV-2, UniProt P0DTC2 14-1208); experiment: multiplexed bead assay, flow cytometry; columns A, B, D, G, H, I
T3 construct: also called SARS-CoV-2 spike; S protein

[4] = target: T4, SARS-CoV-2 full length spike protein (wild type), expressed on the surface of transiently transfected CHO … (SARS-CoV-2, UniProt P0DTC2 14-1273)
[5] = target: T4, SARS-CoV-2 full length spike protein …; experiment: flow cytometry, CHO cells with full-length WT SARS-CoV-2 spike
[6] = target: T5, SARS-CoV-2 full length spike protein (wild type) (SARS-CoV-2, UniProt P0DTC2 14-1273)
[7] = target: T5, SARS-CoV-2 full length spike protein …; experiment: flow cytometry, CHO cells expressing full-length wild-type SARS-CoV-2 spike
[8] = target: SARS-CoV-2 spike protein on infectious SARS-CoV-2 virus, Italy-INMI1 isolate (SARS-CoV-2, UniProt P0DTC2 14-1273); experiment: cell-based or functional assay
[9] = target: T6, SARS-CoV-2 spike (S) protein, full length, wild type (SARS-CoV-2, UniProt P0DTC2 14-1208); experiment: multiplexed bead assay, flow cytometry
T6 construct: also called SARS-CoV-2 full length spike; full-length trimeric SARS-CoV-2 spike protein

B1: antibody 432 (antibody, V domains shown)
VH: QVQLQESGPGLVKPSQTLSLTCTVSGGSISSGGYYWNWIRQHPGKGLEWIGYIYDSGSTYYNPSLKSRLTLSIDTSQNQFSLRRTSVTAADTAVYYCARGRQYDYDRTGLQYYFDYWGQGTLVTVSS
VL: EIVLTQSPGTLSLSPGERATLSCRASQSFSSSYLAWYQQKPGQAPRLLIYGASSRATGIPDRFSGSGSGTDFTLTISRLEPEDFAVYYCQQYGTSSLTFGGGTKVEIK
B1: no binding [1].

B2: antibody 541 (antibody, V domains shown)
VH: QVQLVQSGAEVKKPGASVKVSCKASGYTFTSYYVHWVRQAPGQSLEWMGVISPSTGSTTYAQNFQGRVTMTRDTSTTTVYMELSSLRSEDTAVYYCARDDYYDSTRYFDLWGRGTLVTVSS
VL: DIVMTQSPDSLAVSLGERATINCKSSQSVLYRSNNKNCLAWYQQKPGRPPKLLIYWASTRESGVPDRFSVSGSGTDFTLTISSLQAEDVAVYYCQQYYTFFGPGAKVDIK
B2: no binding [2].

B3: antibody 341 (antibody, V domains shown)
VH: QLQLQESGPGLVKPSETLSLTCTVSGGSISSSSYYWGWIRQPPGKGLEWIGSIYYSGSTYYNPSLKSRVTISVDTSKNQFSLKLSSVTAADTAVYYCARRPLRYFDWLTNFDYWGQGTLVTVSS
VL: EIVLTQSPATLSLSPGERATLSCRASQSVSSYLAWYQQKPGQAPRLLIYDASNRATGIPARFSGSGSGTDFTLTISSLEPEDFAVYYCQQRSNWPITFGQGTRLEIK
B3: no binding [3].

B4: antibody 450 (antibody, V domains shown)
VH: EVQLVESGGGLVQPGGSLRLSCAASEFTFSSYWMSWVRQAPGKGLEWVANIKQDGSEKYYVDSVKGRFTISRDNAKNSLYLQMNSLRAEDTAVYYCARVGEYSGYDLFFDYWGQGTLVTVSS
VL: NFMLTQPHSVSESPGKTVTISYTGSSGSIASNYVQWYQQRPGSAPTTVIYEDNQRPSGVPDRFSGSIDSSSNSASLTISGLKTEDEADYYCQSYDSSNQGVFGGGTKLTVL
B4 was tested, and the “median fluorescence intensity, fold over isotype control” value [4] was 0.85 fold over isotype and the binding result [5] was “no binding”.

B5: antibody 296 (antibody, V domains shown)
VH: EVQLVESGGGLVQPGGSLRLSCAGSGFTLSNYWMTWVRQAPGKGLEWVANINQDASRKYYGDSVKGRFSVSRDNAKNSLYLQMNSLTAEDTGFYYCVREELPSTPGSTWGQGTLVTVSS
VL: QSALTQPASVSGSPGQSITISCTGTSSDIGGYNHVSWYQQHPGKAPKLMIYGVSNRPSGVSDRFSGSKSDNTASLTISGLQAEDEADYYCSSPTSRGNKVFGTGTKVTVL
In the case of B5, the “median fluorescence intensity, fold over isotype control” value [6] is reported as 1.12 fold over isotype and the binding result [7] is reported as “no binding”.

B6: antibody 514 (antibody, V domains shown)
VH: EVQLVQSGAEVKKPGATVKISCKVSGYTFTDYYMHWVQQAPGKGLEWMGLVDPEDGETIYAEKFQGRVTITADTSTDTAYMELSSLRSEDTAVYYCATDCKYDILTGHYSAGYYYYGMDVWGQGTTVTVSS
VL: DIQMTQSPSSLSASVGDRVTITCRASQGISNYLAWFQQKPGKAPKSLIYAASSLQSGVPSKFSGSGSGTDFTLTISSLQPEDFATYYCQQYNSYPFTFGGGTKVEIK
B6: no binding [2].

B7: mAb 555 (antibody, V domains shown)
VH: QVQLVQSGAEVKKPGSSVKVSCKASGGTFSNYAISWVRQAPGQGLEWMGRIIPILGIANYAQKFQGRVTITADKSTSTAYMELSSLRSEDTAVYYCARGYYEARHYYYYYAMDVWGQGTAVTVSS
VL: not shown
In the case of B7, the “IC50, live virus neutralization of Italy-INMI1 isolate; Lab 2, plaque reduction” value [8] is reported as 0.05 µg/mL.

B8: antibody 290 (antibody, V domains shown)
VH: QVHLVQSGAEVKKPGASVKVSCAASGYTFNNYGVSWVRQAPGQGLEWMGWISASNGNTKYAQNLQGRVTMTTDTSTSTAYMELRSLRSDDTAVYYCARDLVGPTAPNYYYGMDVWGQGTAVTVSS
VL: QSVLTQPPSVSGAPGQRVTISCTGSSSSIGAGYDVHWYQQLPGTAPKLLIYANSNRPSGVPDRLSGSKSGTSASLAITGLQAEDEADYYCQSYDSSLSGYVFGTGTKVTVL
B8: no binding [7].

B9: antibody 474 (antibody, V domains shown)
VH: EVQLVESGGGLVQPGGSLRLSCAASGFTFSSYWMHWVRQAPGKGLVWVSRINSDGSSTSYADSVKGRFTISRDNAKNTLYRQMNSLRAEDTAVYYCALGPLDIVGSYYYYGMDVWGQGTTVTVSS
VL: NFMLTQPHSVSESPGKTVTISCTGSSGSIASNYVQWYQQRPGSAPTTVIYEDNQRPSGVPDRFSGSIDSSSNSASLTISGLKTEDEADYYCQSYDSSNQDVVFGGGTKLTVL
B9: no binding [5].

B10: anti-SARS-CoV-2 antibody 474 (antibody, V domains shown)
VH: EVQLVESGGGLVQPGGSLRLSCAASGFTFSSYWMHWVRQAPGKGLVWVSRINSDGSSTSYADSVKGRFTISRDNAKNTLYRQMNSLRAEDTAVYYCALGPLDIVGSYYYYGMDVWGQGTTVTVSS
VL: NFMLTQPHSVSESPGKTVTISCTGSSGSIASNYVQWYQQRPGSAPTTVIYEDNQRPSGVPDRFSGSIDSSSNSASLTISGLKTEDEADYYCQSYDSSNQDVVFGGGTKLTVL
B10: no binding [9].

B11: antibody 510 (antibody, V domains shown)
VH: QVQLQESGPGLVKPSQTLSLTCTVSGGSISSGSYYWSWIRQPAGKGLEWIGRIYTSGSTNYNPSLKSRVTISVDTSKNQFSLKLSSVTAADTAVYYCAREGQWLYRFDYWGQGTLVTVSS
VL: QSALTQPASVSGSPGQSITISCTGTSSDVGNYDLVSWYQQHPGKAPKLVIYGVTKRPSGVSNRFSGSKSGNTASLTISGLQAEDEADYYCCSYATGDTSVFGTGTKVTVL
B11: no binding [2].
